Assay results reported in the supplement of paper PMC9170038.

Test system: K4 kissing-loop RNA reporter
Test: apparent KD of K4 kissing-loop reporter; higher = weaker reporter binding
Conditions: Eterna round: R107
Description: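 RNA-MaP round R107: designed RNA switches with theophylline, tryptophan, arginine or FMN aptamers are transcribed on-chip within common flanks. They are titrated with a labelled K4 kissing-loop RNA reporter in RNA-MaP buffer (100 mM Tris pH 7.5, 80 mM KCl, 4 mM MgCl2), without ligand or with the indicated ligand. Median apparent KD per design.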

[1] = input ligand: theophylline 20 uM
[2] = input ligand: tryptophan 2.4 mM
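Further: bound reporter read as fluorescence of individual clusters on recovered sequencing chips by microscopy, with normalized cluster intensities fitted with a binding model.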

Row | Sequence | apparent KD of K4 kissing-loop reporter (input ligand: FMN 200 uM) | apparent KD of K4 kissing-loop reporter (input ligand: arginine 13.2 mM) | apparent KD of K4 kissing-loop reporter (input ligand: none) | apparent KD of K4 kissing-loop reporter [1] | apparent KD of K4 kissing-loop reporter [2]
1 | UGUCAUUGGUCUGAUACCAGAAGAAAUCUGGAGUGAUGUUCCGAGUACGACAAAAGUCGCUUCCCUUGGCAGCAGACCGAUGACU [TheoBS 22 #SwitchBubble 13 #StaticStem] | 235 nM | 198 nM | 198 nM | 161 nM | 207 nM
2 | UUAGAUGAUUCAUCAAGAUUGAUGAGCAAACGAGGACCGGUACGGCCGCCACUCGAGUGAUGUUCGAGAAGCUCAUCAAUCAAUU [AK4.2 EXC Tryptophan A] | 166 nM | 120 nM | 139 nM | 127 nM | 370 nM
3 | AUUAAUAACAGAGGAUAUGCAUUUUUAUUAUUUUUAAAUAUUAAAUGCAGUGAUGUUGCAUAUUAAGCAGAAGGCUGAUUUAUUU [JR_SSFMNB_Sub012] | 117 nM | 271 nM | 211 nM | 279 nM | 147 nM
4 | UACUAUAGUGAUGUUAUAGAUAAACCAGAUACCAGUGUAACAUAACACCCUUGGCAGCUGAUGAGGGAAAAUAUAAAUGUGUAUU [AstrosSSTHe-A#4newdesignED10.09] | 196 nM | 204 nM | 198 nM | 197 nM | 197 nM
5 | AGGGUAAGGCGUUAACAUGACACCUGGGAAGGAGCGCAGUACACUGCAGGUAGGUCGCCCAGUGAUGUUGGGCGUAUGUAUUAGU [Legexeso] | 140 nM | 143 nM | 153 nM | 200 nM | 119 nM
6 | UAUAUAGUGACGGCCGCCACUAUUGUGAUGUAGUUGUUAGAGUGAUGUUUUGUUGUUUGAUUUUGUAGGACCGGGUUAUAUGUUA [rccrwzmullin] | 842 nM | 565 nM | 812 nM | 612 nM | 668 nM
7 | AACUUUUAAUGAAUUACAUUUUAUUUUUCUCGAGGACCGGUACGGCCGCCACUCGUACUAUAGUGAUGUUAUAGAUAAGUCCUAA [JR_ExcTryptoA_Sub020] | 124 nM | 182 nM | 142 nM | 179 nM | 68.7 nM
8 | CUUGCCCUUUCGGCCGCCACUCCGAGUGAUGUUGGGAUGUUCGGUGCAGCCAUUUAGAUGUCAGUGAGGACCGGGAAAUUAUGCG [theeternabot_exclusion_KL_Trp_B_9] | 220 nM | 128 nM | 251 nM | 150 nM | 196 nM
9 | UCGGAUGUUCUGUCGAGAUGAGCAAUAGCACGAGGACCGGUACGGCCGCCACUCGACCCAGUGAUGUUGGGUGGCUAAGUUCAGC [Geragean] | 265 nM | 239 nM | 208 nM | 285 nM | 147 nM
10 | CCAUCGCUAUUCGAUACCAGCUACUUAGUGAUGUUAAGUUAAAAUUAAUUGUAGAUUAAAAGCCCUUGGCAGCGAAUAGUGAUGG [Theophylline B K4 20] | 159 nM | 141 nM | 154 nM | 119 nM | 152 nM
11 | ACCUUAUUUGCCAGUGAUGUUGGACAGGAAGGAGCGGGCAUAAGCCCAGGUAGGUCGCCUGUCAACUUUCUUAUAGCCCAAAGGU [KL-XArg-A18] | 308 nM | 253 nM | 396 nM | 314 nM | 294 nM
12 | GCUAGCAUGGCAGGAUAUAGCUAUAGGAGUGAUGUUCCUUGGUAGGUGAGUGAUGUUCACUACCAACUAGAAGGGCCAUGCUAGC | 148 nM | 116 nM | 125 nM | 121 nM | 135 nM
13 | CAAUGAGUAUAAGAUGAUAUCAUCACAGAAGGAGCGAGUGAUAACUCAGGUAGGUCGCUGAAUUUGUCGAGUGAUGUUCGAUAGA [whbob_SS_Arginine_A_sa119] | 209 nM | 173 nM | 204 nM | 188 nM | 182 nM
14 | GGCACGGGCUCGGCCGCCACUCCCGCGGGUCGUAAGGUCCGCUACUGAGUGAUGUUCGGUUGGAGGAGGACCGGGAGCCCGUGCC [#2 Exclusion - Tryptophan B Attempt #20 (HarryS)] | 149 nM | 220 nM | 143 nM | 145 nM | 119 nM
15 | UUUAUAAAGUCGGCCGCCACUGGUUUUAUUUUUGUUUAAUCUGGAUCAUAGUGAUGUUAUGAGACCAGGACCGGGACAUUUGUUA [#08 K4 Tryptophan B Exclusion] | 89.5 nM | 86 nM | 88.2 nM | 93.8 nM | 132 nM
16 | ACUGAGCAUGCGGCCGCCACUUCAGAACGUCGCCCGGAGGGCGACGCCUCCGCAGUGAUGUUGCGGAGGACCGGGCAUGUUCAGA [Omei KL Tryp B Exc A v4] | 90.4 nM | 78.4 nM | 99.8 nM | 77.9 nM | 85.3 nM
17 | GCUAUGGUAGGAAGGAGCGCUUAUUUAUUAAUAAGAGUGAUGUUCGAUAAUAAAUAUUUAUAGCAGGUAGGUCGCCUACUAUAGC [Arginine B K4 1] | 225 nM | 219 nM | 232 nM | 227 nM | 204 nM
18 | GCAACAUUGGGAGGAUAUCAUUCUGAGUGAUGUUCAGGGUUCAGCUAACGAAAGUUAGUUGUACCAUGAGAAGGCCUAAUGUUGC [Omei KL FMN B SS A v2] | 287 nM | 769 nM | 964 nM | 867 nM | 961 nM
19 | AGAGUCGGCUGUGAUACCAGUCGUAUAACAACAUGUCGCAGUGAUGUUGCGAGAUAGGAUGACCCUUGGCAGCACUCAGUACGAU [Same State Theophylline B GF 7] | 425 nM | 372 nM | 347 nM | 404 nM | 426 nM
20 | AGUCGCAGUGAUGUUGCGAUUCCGUUGAGGGAGGAUAUUGGUAAUACAAGAAGGCCCGGCUGCGGGUGAUGUUCGCAAUAGGGCC [Exclusion FMN A GF19] | 138 nM | 108 nM | 117 nM | 112 nM | 105 nM
21 | CCUGAGUGAUGUUUAGGAGGCCCGAUAGAUACCAGAAAUACUGCGUUCCCUUGGCAGCUACGCGGACGGAAGACUACGUUACACG [theeternabot_exclusion_KL_Theo_A_16] | 390 nM | 222 nM | 324 nM | 379 nM | 325 nM
22 | CCCUUGGUAUAUCGGUAUGUAUAAGCGGAUACCAGCCAGGACAACGGCCCUUGGCAGCCGGGCAGGCAGAGUGAUGUUCAUGCUA [theeternabot_exclusion_KL_Theo_A_22] | 385 nM | 368 nM | 516 nM | 535 nM | 346 nM
